In one test the test system is syndecan-1 mRNA. The experiment in a line: Syndecan-1 mRNA expression in MCA3D keratinocytes. The format is cell-based. The settings on record: MCA3D mouse keratinocytes.
Test [1] relates to FGF-inducible Response Element (FiRE). The experiment in a line: pFiRE CAT reporter activation by growth factors in 3T3NIH cells. The test is classed as cell-based, mouse. As to conditions: pFiRE transfected 3T3NIH cells; 10 ng/ml growth factor (2 ng/ml TGF-β) or 5% FCS, 2 days. Here is the method: Each of these plasmids was transiently transfected into 3T3NIH cells, using the calcium phosphate precipitation method (Chen and Okayama, Mol. Cell Biol. 7:2745-2752 (1987)) as follows. For transient transfections NIH3T3 cells were plated at equal density on six-well plates (Falcon) two days before transfection. Plasmid DNA was transfected into cells by calcium phosphate method (Chen and Okayama, Mol. Cell Biol. 7:2745-2752 (1987)). A β-galactosidase expressing plasmid (pSV-β-galactosidase, Promega) was co-transfected with CAT constructs to monitor transfection efficiencies. Three parallel transfections were used in every assay. […] CAT activities were measured by liquid scintillation and β-galactosidase activities spectrophotometrically at 420 nm as described by Vihinen et al., J. Biol. Chem 268:17261-17269 (1993)). […]
For the gene expression analysis the fragments of the syndecan-1 upstream region were subcloned from mouse genomic clones into the XbaI site of the pCATProm vector in which a mouse syndecan-1 promoter region (−1310 to +140) was fused to the CAT reporter gene (Vihinen et al., J. Biol. Chem. 271:12532-12541 (1996)). […] These constructs were then used to transient transfect NIH3T3 cells as described supra, and CAT activity was measured.
Effect of Various Growth Factors on Enhancer Activation in NIH3T3 Cells. […] Radioactivity was measured using a gamma counter (Wallac).

Test [2] shares this test system. The experiment in a line: FiRE / Syn Prom CAT reporter in MCA3D keratinocytes. The format is cell-based. The settings on record: MCA3D mouse keratinocytes transfected with FiRE construct. As to the method:
The cells used for proximal promoter constructs were 3T3 NIH, S115 (either hormone-treated or not) and nMuMG cells. For enhancer constructs we used 3T3 NIH cells grown in 2% CMS medium and MCA 3D cells grown in Ham's medium. 3T3 NIH cells were also used to test the effect of growth factors in 2% CMS medium with 10 ng/ml FGF-2 and 2ng/ml TGFβ-1. MCA 3D cells were used to test the effect of 10 ng/ml KGF.
FiRE is Induced Selectively by FGF-7 in Keratinocytes. The ability of FiRE to enhance transcription was tested in the mouse keratinocyte cell line MCA3D (Kuliz-Martin et al., Carcinogenesis 4:1367-1377 (1983)). MCA3D cells were transfected as described supra for mouse NIH3T3 cells. Following transfection, the cells were treated with fetal calf serum, PDGF, FGF-1, FGF-2, and FGF-7 as described supra for the NIH3T3 cells.

Another test deals with 3T3NIH cells. Description: 125-IdU incorporation (DNA synthesis) assay in 3T3NIH cells. The format is cell-based, mouse. The settings on record: pFiRE transfected 3T3NIH cells; 10 ng/ml growth factor (2 ng/ml TGF-β) or 5% FCS. From the text: Effect of Various Growth Factors on Enhancer Activation in NIH3T3 Cells. Plasmid pFiRE was transfected into 3T3NIH cells as described, supra. The cells were starved in DMEM medium supplemented with 5% fetal calf serum to about 70% confluence. Fetal calf serum was then replaced with 2% carboxy-methyl-Sephadex eluted fetal calf serum (CMS) 12 hrs before adding the growth factors. Various growth factors in the same medium, 5% fetal calf serum (FCS) supplemented medium or a control containing the medium, without any added growth factors were incubated with the transfected cells for 2 days, and CAT activity was measured. The effect of 10 ng/ml of FGF-2, FGF-1, FGF-4, FGF-7 (KGF), EGF, IGF1, TGFα, IFNγ, and PDGF and 2 ng/ml TGF-β were tested. The human recombinant growth factors were purchased from Peprotech (FGF-1, -2, and -7), Boehringer (FGF-2) or from Calbiochem (PDGF) TGF-β was purchased from Sigma. The effect of the added growth factors and FCS on DNA synthesis was also tested by a 125-IdU incorporation assay. This cell proliferation assay was carried out by incubating cells for 4-6 hrs with 0.25 μCi/ml 5-[^125I]iodo-2′-deoxyuridine (IdU, Amersham), washed several times with PBS and solubilized in 1 M NaOH. Radioactivity was measured using a gamma counter (Wallac).

Entries after “also recorded” stand apart in the source; their conditions may differ.

B1: FGF-7: Keratinocyte growth factor (FGF-7 or KGF) (protein, UniProt P21781 32-194, looked up)
Fibroblast growth factor 7: CNDMTPEQMATNVNCSSPERHTRSYDYMEGGDIRVRRLFCRTQWYLRIDKRGKVKGTQEMKNNYNIMEIRTVAVGIVAIKGVESEFYLAMNKEGKLYAKKECNEDCNFKELILENHYNTYASAKWTHNGGEMFVALNQKGIPVRGKKTKKEQKTAHFLPMAIT
For B1, the “syndecan-1 mRNA expression” value with syndecan-1 mRNA is “strongly induced”. The “FiRE enhancer activation (CAT reporter activity)” value in test [1] is “did not activate the enhancer; also recorded: no significant enhancer activation; also recorded: no effect”. Moreover, in test [2], the FiRE activation result is reported as “strongly activated FiRE”. In addition, the “DNA synthesis / cell proliferation (125-IdU incorporation)” value in the test with 3T3NIH cells is recorded as “significant increase in DNA synthesis”.

B2: FGF-4: growth factor, FGF family member (protein, UniProt P08620 31-206, looked up)
Fibroblast growth factor 4: APTAPNGTLEAELERRWESLVALSLARLPVAAQPKEAAVQSGAGDYLLGIKRLRRLYCNVGIGFHLQALPDGRIGGAHADTRDSLLELSPVERGVVSIFGVASRFFVAMSSKGKLYGSPFFTDECTFKEILLPNNYNAYESYKYPGMFIALSKNGKTKKGNRVSPTMKVTHFLPRL
As to B2, the “FiRE enhancer activation (CAT reporter activity)” value in test [1] was “lower effect”.

Values taken from patent publication US6492344B1, “Syndecan enhancer element and syndecan stimulation of cellular differentiation” (Biotie Therapies Corp., priority 1993, dated 2002).
